Reference: patent US20230220098A1, “THERAPEUTIC DRUG FOR POLYCYTHEMIA” (PERSEUS PROTEOMICS INC., priority 2019, published 2023)

Columns and labels:
Tf-TfR binding = target: T1, Tf-TfR binding (Homo sapiens, UniProt P02786); experiment: Tf-TfR binding inhibition ELISA (HRP-labeled Tf on solid-phase sTfR); conditions: dose 100 ng/mL; FIG. 3
T1 construct: A human TfR extracellular domain (the amino acids at positions 89 to 760); made in house; host or cells: Expi293 cells
Method: The Tf-TfR binding inhibitory activity of an antibody can be measured according to the method described in the after-mentioned “Example 2(2): Comparison between TfR436 antibody and antibodies of other companies in terms of Tf-TfR binding inhibition.” A TfR solution is dispensed into a substrate (a 96-well plate, etc.) and is then left at rest to obtain a solid phase, and thereafter, blocking is carried out. Subsequently, an HRP-labeled Tf solution is dispensed into the substrate, and an antibody is further added thereto, so that they are allowed to react with each other at room temperature. Thereafter, the substrate is washed, and a coloring reagent (TMB, etc.) is then added thereto, so that they are allowed to react with each other. After that, the absorbance is measured using a plate reader. By performing the above-described operations, the Tf-TfR binding inhibitory activity of the antibody can be evaluated.
The sTfR described in Example 1 was adjusted to a concentration of 5.0 μg/mL by addition of PBST, and the diluted solution was then dispensed into MaxiSorp 96-well plate (Nunc) in an amount of 100 μL/well. Thereafter, it was left at rest at 4° C. overnight to obtain a solid phase. […] Thereafter, the absorbance at 450 nm (ref. 620 nm) was measured.

[1] = test system: HYDREA (registered trademark)-administered patient-derived hematopoietic stem cells; experiment: Erythroblast colony assay, HYDREA-administered patients; assay type: cell-based, human
Method: The peripheral blood of a PV patient, which had been obtained by phlebotomy, was dispensed into three 50-mL centrifuge tubes in an amount of 20 mL each, and an equal amount of PBS (Gibco) was then added to each tube, followed by mixing. Thereafter, 15 mL of LymphoSep, Lymphocyte Separation Media (MP Biomedicals™) was dispensed into […] novel 50-mL centrifuge tubes, and the peripheral blood diluted with PBS was then slowly added thereto in an amount of 30 mL each, and the obtained mixture was then centrifuged at 1,500 rpm at room temperature for 30 minutes. After completion of the centrifugation, the plasma as a supernatant was removed, and a PBMC layer was collected by transfer pipetting. The collected PBMC layer was suspended in 20 mL of PBS+2% FBS (Gibco). The thus obtained suspension was further centrifuged at 1350 rpm at room temperature for 10 minutes, a supernatant was then removed, and the residue was then suspended in 1 to 5 mL of IMDM (Nacalai Tesque)+2% FBS. Using 0.2% Trypan Blue, the number of cells was counted, and the cells were adjusted to 2×10^6 cells/mL by addition of IMDM+2% FBS.
TfR436 and a human IgG1 antibody used as a negative control were each diluted with IMDM+2% FBS to an antibody concentration of […]. MethoCult™ H4534 Classic WithoutEPO (STEMCELL TECHNOLOGIES) was dispensed into seven 14-mL round bottle tubes in an amount of 3 mL each, and 300 jut of the above-prepared PBMC was then added thereto. Thereafter, an antibody-diluted solution or 3.3 μL of IMDM+2% FBS (control) was further added thereto, followed by full mixing. Thereafter, the reaction mixture was seeded on two 35-mm culture dishes in an amount of 1 mL each. This mixture was cultured at 37° C. in a 5% CO2 incubator for 14 days. After completion of the culture, the 35-mm culture dishes were observed under a microscope, and the number of the formed BFU-E or CFU-E colonies was then counted. The colony formation percentage with respect to the number of colonies obtained by a culture without addition of antibodies was then calculated.
Hematopoietic stem cells derived from patients administered with HYDREA (registered trademark) were used as PV patient-derived hematopoietic stem cells, and the activity of TfR436 to inhibit erythroblast colony formation was examined by the same method as that of Example 3. Besides, HYDREA (registered trademark) was administered as hydroxycarbamide (also referred to as “hydroxyurea”) to the patients via oral administration at a daily dose of 500 mg to 2000 mg once or divided over twice or three times. As a result, erythroblast colony formation was inhibited by addition of 100 ng/mL or more TfR436 (Table 2).

T1 sequence (P02786 89-760): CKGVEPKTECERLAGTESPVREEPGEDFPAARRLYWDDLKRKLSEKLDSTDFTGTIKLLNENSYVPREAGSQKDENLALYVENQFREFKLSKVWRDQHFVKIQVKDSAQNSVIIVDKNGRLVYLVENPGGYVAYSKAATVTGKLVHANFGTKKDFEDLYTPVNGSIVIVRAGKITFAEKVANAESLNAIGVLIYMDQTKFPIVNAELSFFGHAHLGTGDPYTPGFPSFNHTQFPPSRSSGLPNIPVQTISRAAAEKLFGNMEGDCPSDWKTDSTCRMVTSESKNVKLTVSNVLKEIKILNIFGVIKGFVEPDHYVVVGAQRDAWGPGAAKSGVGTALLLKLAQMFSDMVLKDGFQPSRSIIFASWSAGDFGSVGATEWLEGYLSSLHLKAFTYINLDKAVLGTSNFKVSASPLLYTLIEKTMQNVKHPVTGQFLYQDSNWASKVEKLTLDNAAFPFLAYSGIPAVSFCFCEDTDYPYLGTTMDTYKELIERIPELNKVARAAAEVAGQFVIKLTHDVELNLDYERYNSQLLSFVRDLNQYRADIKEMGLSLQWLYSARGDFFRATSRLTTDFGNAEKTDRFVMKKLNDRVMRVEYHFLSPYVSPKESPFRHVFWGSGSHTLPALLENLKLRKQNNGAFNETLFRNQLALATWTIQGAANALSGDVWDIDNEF

B1: TfR436: anti-human transferrin receptor antibody, VH SEQ ID NO: 7 and VL SEQ ID NO: 8, described in WO2014/073641; called PPMX-T003 in Tables 3 and 4 (antibody, listed as Homo sapiens, V domains shown)
VH: DVQLVQSGGGVVQPGRSLRLSCAASGFPFKSYGMHWVRQAPGKGLEWVAVISYDGSNKYYADSVKGRFTISRDNSKNTLYLQMNSLRGEDTAVYYCARDSNFWSGYYSPVDVWGQGTTVTVSS
VL: NFMLTQPHSVSESPGKTVTISCTRSSGSIASNSVQWYQQRPGSAPITVIYEDTQRPSGVPDRFSGSIDSSSNSASLTISGLQTEDEADYYCQSYDSAYHWVFGGGTKLAVL
- inhibition of the binding of Tf-TfR (Tf-TfR binding): completely inhibited
- erythroblast colony formation ([1]; 100 ng/mL or more): inhibited
- colony formation percentage with respect to culture without addition of antibodies ([1]; HYDREA-administered pt No. 1, 10 ng/mL): 109.1%
- colony formation percentage with respect to culture without addition of antibodies ([1]; HYDREA-administered pt No. 1, 100 ng/mL): 0.0%
- colony formation percentage with respect to culture without addition of antibodies ([1]; HYDREA-administered pt No. 1, 1000 ng/mL): 0.0%
- colony formation percentage with respect to culture without addition of antibodies ([1]; HYDREA-administered pt No. 23, 10 ng/mL): 100.0%
- colony formation percentage with respect to culture without addition of antibodies ([1]; HYDREA-administered pt No. 23, 100 ng/mL): 0.0%
- colony formation percentage with respect to culture without addition of antibodies ([1]; HYDREA-administered pt No. 23, 1000 ng/mL): 0.0%
- colony formation percentage with respect to culture without addition of antibodies ([1]; HYDREA-administered pt No. 24, 10 ng/mL): 68.6%
- colony formation percentage with respect to culture without addition of antibodies ([1]; HYDREA-administered pt No. 24, 100 ng/mL): 0.0%
- colony formation percentage with respect to culture without addition of antibodies ([1]; HYDREA-administered pt No. 24, 1000 ng/mL): 0.0%
- colony formation percentage with respect to culture without addition of antibodies ([1]; HYDREA-administered pt No. 26, 10 ng/mL): 148.9%
- colony formation percentage with respect to culture without addition of antibodies ([1]; HYDREA-administered pt No. 26, 100 ng/mL): 10.6%
- colony formation percentage with respect to culture without addition of antibodies ([1]; HYDREA-administered pt No. 26, 1000 ng/mL): 0.0%
- colony formation percentage with respect to culture without addition of antibodies ([1]; HYDREA-administered pt No. 27, 10 ng/mL): 152.4%
- colony formation percentage with respect to culture without addition of antibodies ([1]; HYDREA-administered pt No. 27, 100 ng/mL): 0.0%
- colony formation percentage with respect to culture without addition of antibodies ([1]; HYDREA-administered pt No. 27, 1000 ng/mL): 0.0%
- colony formation percentage with respect to culture without addition of antibodies ([1]; HYDREA-administered pt No. 28, 10 ng/mL): 112.5%
- colony formation percentage with respect to culture without addition of antibodies ([1]; HYDREA-administered pt No. 28, 100 ng/mL): 0.0%
- colony formation percentage with respect to culture without addition of antibodies ([1]; HYDREA-administered pt No. 28, 1000 ng/mL): 0.0%
